From publication PMC10873202, “Structural mechanisms of autoinhibition and substrate recognition by the ubiquitin ligase HACE1” (Nature Structural & Molecular Biology, 2024)
Substitutions are numbered along the chain they refer to. Each block holds one binder with its values, some of them ahead of it.

Experiments:
[1] = target: T1, HACE1 full length, wild type (HACE1 FL) (human), Q8IYU2; experiment: SEC; analytical SEC, 20 μM HACE1, 50 mM HEPES (pH 8.0), 150 mM NaCl, 1 mM DTT, Superdex 200 Increase 3.2/300, 4 °C; details: remark: other sources report otherwise
T1 chain: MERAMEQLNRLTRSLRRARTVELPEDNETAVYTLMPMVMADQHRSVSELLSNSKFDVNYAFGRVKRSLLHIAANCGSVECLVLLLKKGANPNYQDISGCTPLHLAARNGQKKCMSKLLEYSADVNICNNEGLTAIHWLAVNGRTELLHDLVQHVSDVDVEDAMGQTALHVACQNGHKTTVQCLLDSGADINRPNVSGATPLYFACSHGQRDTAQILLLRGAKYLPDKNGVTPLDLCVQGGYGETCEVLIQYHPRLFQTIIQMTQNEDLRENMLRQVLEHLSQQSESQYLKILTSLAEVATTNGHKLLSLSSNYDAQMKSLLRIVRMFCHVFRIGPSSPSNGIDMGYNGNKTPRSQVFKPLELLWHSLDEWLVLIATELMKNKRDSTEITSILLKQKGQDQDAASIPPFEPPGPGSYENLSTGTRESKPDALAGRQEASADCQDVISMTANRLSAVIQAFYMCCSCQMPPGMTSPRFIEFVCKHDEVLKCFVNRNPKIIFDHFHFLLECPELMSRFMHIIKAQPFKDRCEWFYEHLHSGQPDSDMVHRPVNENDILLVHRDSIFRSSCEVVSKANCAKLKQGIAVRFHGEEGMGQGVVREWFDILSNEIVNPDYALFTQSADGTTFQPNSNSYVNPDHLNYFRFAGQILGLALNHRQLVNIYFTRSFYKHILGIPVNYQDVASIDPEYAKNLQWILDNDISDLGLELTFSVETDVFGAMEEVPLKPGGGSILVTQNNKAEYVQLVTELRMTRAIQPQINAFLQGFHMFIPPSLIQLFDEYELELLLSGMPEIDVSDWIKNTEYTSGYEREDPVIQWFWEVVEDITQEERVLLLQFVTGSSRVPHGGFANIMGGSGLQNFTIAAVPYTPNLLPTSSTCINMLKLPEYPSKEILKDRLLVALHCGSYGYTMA

[2] = target: T1, HACE1 full length, wild type (HACE1 FL) …; experiment: mass photometry; HACE1 samples at 20–40 nM in 25 mM HEPES (pH 8.0), 150 mM NaCl; One^MP mass photometer, BSA calibration; details: remark: other sources report otherwise
[3] = target: the molecule itself; experiment: as above

- stoichiometry N [1]: 2
- stoichiometry N [2]: 2
B1: HACE1 full length, wild type (HACE1 FL), Q8IYU2 1-909 (enzyme)
chain: T1 chain

B2: HACE1 L11A (enzyme, human, UniProt Q8IYU2 1-909, looked up)
chain: T1 chain with L11A
notes: HACE1, human, full-length variant; also called Leu11 substituted with alanine; source: E. coli BL21(DE3), purified (IMAC, tag removal, SEC); not shown: His6 (pSKB2) or His10-tandem Z (pN-HZ10-ZZ(3)), N-terminal, cleaved
- binding result [3]: binds

B3: HACE1 L704D (enzyme, human, UniProt Q8IYU2 1-909, looked up)
chain: T1 chain with L704D
notes: HACE1, human, full-length variant (HECT N-lobe); source: E. coli BL21(DE3), purified (IMAC, tag removal, SEC); not shown: His6 (pSKB2) or His10-tandem Z (pN-HZ10-ZZ(3)), N-terminal, cleaved
- binding result [3]: binds

B4: HACE1 L8A (enzyme, human, UniProt Q8IYU2 1-909, looked up)
chain: T1 chain with L8A
notes: HACE1, human, full-length variant; also called Leu8 substituted with alanine; source: E. coli BL21(DE3), purified (IMAC, tag removal, SEC); not shown: His6 (pSKB2) or His10-tandem Z (pN-HZ10-ZZ(3)), N-terminal, cleaved
- binding result [3]: binds

B5: HACE1 T12E (enzyme, human, UniProt Q8IYU2 1-909, looked up)
chain: T1 chain with T12E
notes: HACE1, human, control phospho-mimetic variant compared with the wild-type dimer ('FL'); source: E. coli BL21(DE3), purified (IMAC, tag removal, SEC); not shown: His6 (pSKB2) or His10-tandem Z (pN-HZ10-ZZ(3)), N-terminal, cleaved
- binding result [3]: binds

B6: HACE1 L15A (enzyme, human, UniProt Q8IYU2 1-909, looked up)
chain: T1 chain with L15A
notes: HACE1, human, full-length variant; also called Leu15 substituted with alanine; source: E. coli BL21(DE3), purified (IMAC, tag removal, SEC); not shown: His6 (pSKB2) or His10-tandem Z (pN-HZ10-ZZ(3)), N-terminal, cleaved
- binding result [3]: binds

B7: HACE1 L8D (enzyme, human, UniProt Q8IYU2 1-909, looked up)
chain: T1 chain with L8D
notes: HACE1, human, full-length variant; source: E. coli BL21(DE3), purified (IMAC, tag removal, SEC); not shown: His6 (pSKB2) or His10-tandem Z (pN-HZ10-ZZ(3)), N-terminal, cleaved
- binding result [3]: binds
